B1: TIMM23B (protein)
chain: MEGGGGSGDKTTGVLAGFFGAGEAGYSHADLAGVPLTGMNPLCPYLNVDPRYLVQDTDEFILPTGANKTWGRFELAFFTIGGCCMTGAAFGAMNGLRLGLKETQNMAWSKPGNVQILNMVTRQGALWANTLGSLALLYSAFGVIIEKTRGAEDDLNTVAAGTMTGMLYKCTVSEMALDSPFCVLLSGS
B2: PPP6R3 (protein)
chain: MFWKFDLHSSSHIDTLLEREDVTLKELMDEEDVLQECKAQNRKLIEFLLKAECLEDLVSFIIEEPPQDMDEKIRYKYPNISCELLTSDVSQMNDRLGEDESLLMKLYSFLLNDSPLNPLLASFFSKVLSILISRKPEQIVDFLKKKHDFVDLIIKHIGTSAIMDLLLRLLTCIEPPQPRQDVLNWLNEEKIIQRLVEIVHPSQEEDRHSNASQSLCEIVRLSRDQMLQIQNSTEPDPLLATLEKQEIIEQLLSNIFHKEKNESAIVSAIQILLTLLETRRPTFEGHIEICPPGMSHSACSVNKSVLEAIRGRLGSFHELLLEPPKKSVMKTTWGVLDPPVGNTRLNVIRLISSLLQTNTSSINGDLMELNSIGVILNMFFKYTWNNFLHTQVEICIALILASPFENTENATITDQDSTGDNLLLKHLFQKCQLIERILEAWEMNEKKQAEGGRRHGYMGHLTRIANCIVHSTDKGPNSALVQQLIKDLPDEVRERWETFCTSSLGETNKRNTVDLVTTCHIHSSSDDEIDFKETGFSQDSSLQQAFSDYQMQQMTSNFIDQFGFNDEKFADQDDIGNVSFDRVSDINFTLNTNESGNIALFEACCKERIQQFDDGGSDEEDIWEEKHIAFTPESQRRSSSGSTDSEESTDSEEEDGAKQDLFEPSSANTEDKMEVDLSEPPNWSANFDVPMETTHGAPLDSVGSDVWSTEEPMPTKETGWASFSEFTSSLSTKDSLRSNSPVEMETSTEPMDPLTPSAAALAVQPEAAGSVAMEASSDGEEDAESTDKVTETVMNGGMKETLSLTVDAKTETAVFKRVLKSYREEGKLSTSQDAACKDAEECPETAEAKCAAPRPPSSSPEQRTGQPSAPGDTSVNGPV
B3: UBAC2 (protein)
chain: HCQKLFVYDLHAVKNDFQIWRLICGRIICLDLKDTFCSSLLIYNFRIFERRYGSRKFASFLLGSWVLSALFDFLLIEAMQYFFGITAASNLPSGFLAPVFALFVPFYCSIPRVQVAQILGPLSITNKTLIYILGLQLFTSGSYIWIVAISGLMSGLCYDSKMFQVHQVLCIPSWMAKFFSWTLEPIFSSSEPTSEARIGMGATLDIQRQQRMELLDRQLMFSQFAQGRRQRQQQGGMINWNRLFPPLRQRQNVNYQGGRQSEPAAPPLEVSEEQVARLMEMGFSRGDALEALRASNNDLNVATNFLLQH
B4: LPCAT1 (protein)
chain: MRLRGCGPRAAPASSAGASDARLLAPPGRNPFVHELRLSALQKAQVALMTLTLFPVRLLVAAAMMLLAWPLALVASLGSAEKEPEQPPALWRKVVDFLLKAIMRTMWFAGGFHRVAVKGRQALPTEAAILTLAPHSSYFDAIPVTMTMSSIVMKAESRDIPIWGTLIQYIRPVFVSRSDQDSRRKTVEEIKRRAQSNGKWPQIMIFPEGTCTNRTCLITFKPGAFIPGAPVQPVVLRYPNKLDTITWTWQGPGALEILWLTLCQFHNQVEIEFLPVYSPSEEEKRNPALYASNVRRVMAEALGVSVTDYTFEDCQLALAEGQLRLPADTCLLEFARLVRGLGLKPEKLEKDLDRYSERARMKGGEKIGIAEFAASLEVPVSDLLEDMFSLFDESGSGEVDLRECVVALSVVCRPARTLDTIQLAFKMYGAQEDGSVGEGDLSCILKTALGVAELTVTDLFRAIDQEEKGKITFADFHRFAEMYPAFAEEYLYPDQTHFESCAETSPAPIPNGFCADFSPENSDAGRKPVRKKLD
B5: FAF2 (protein)
chain: AAPEERDLTQEQTEKLLQFQDLTGIESMDQCRHTLEQHNWNIEAAVQDRLNEQEGVPSVFNPPPSRPLQVNTADHRIYSYVVSRPQPRGLLGWGYYLIMLPFRFTYYTILDIFRFALRFIRPDPRSRVTDPVGDIVSFMHSFEEKYGRAHPVFYQGTYSQALNDAKRELRFLLVYLHGDDHQDSDEFCRNTLCAPEVISLINTRMLFWACSTNKPEGYRVSQALRENTYPFLAMIMLKDRRMTVVGRLEGLIQPDDLINQLTFIMDANQTYLVSERLEREERNQTQVLRQQQDEAYLASLRADQEKERKKREERERKRRKEEEVQQQKLAEERRRQNLQEEKERKLECLPPEPSPDDPESVKIIFKLPNDSRVERRFHFSQSLTVIHDFLFSLKESPEKFQIEANFPRRVLPCIPSEEWPNPPTLQEAGLSHTEVLFVQDLTDE
B6: AGPAT6 (protein)
chain: VSFGIRKLYMKSLLKIFAWATLRMERGAKEKNHQLYKPYTNGIIAKDPTSLEEEIKEIRRSGSSKALDNTPEFELSDIFYFCRKGMETIMDDEVTKRFSAEELESWNLLSRTNYNFQYISLRLTVLWGLGVLIRYCFLLPLRIALAFTGISLLVVGTTVVGYLPNGRFKEFMSKHVHLMCYRICVRALTAIITYHDRENRPRNGGICVANHTSPIDVIILASDGYYAMVGQVHGGLMGVIQRAMVKACPHVWFERSEVKDRHLVAKRLTEHVQDKSKLPILIFPEGTCINNTSVMMFKKGSFEIGATVYPVAIKYDPQFGDAFWNSSKYGMVTYLLRMMTSWAIVCSVWYLPPMTREADEDAVQFANRVKSAIARQGGLVDLLWDGGLKREKVKDTFKEEQQKLYSKMIVGNHKDRSRS
B7: SLC25A22 (protein)
chain: MADKQISLPAKLINGGIAGLIGVTCVFPIDLAKTRLQNQQNGQRVYTSMSDCLIKTVRSEGYFGMYRGAAVNLTLVTPEKAIKLAANDFFRHQLSKDGQKLTLLKEMLAGCGAGTCQVIVTTPMEMLKIQLQDAGRIAAQRKILAAQGQLSAQGGAQPSVEAPAAPRPTATQLTRDLLRSRGIAGLYKGLGATLLRDVPFSVVYFPLFANLNQLGRPASEEKSPFYVSFLAGCVAGSAAAVAVNPCDVVKTRLQSLQRGVNEDTYSGILDCARKILRHEGPSAFLKGAYCRALVIAPLFGIAQVVYFLGIAESLLGLLQDPQA
B8: PSMD12 (protein)
chain: ADGGSERADGRIVKMEVDYSATVDQRLPECAKLAKEGRLQEVIETLLSLEKQTRTASDMVSTSRILVAVVKMCYEAKEWDLLNENIMLLSKRRSQLKQAVAKMVQQCCTYVEEITDLPIKLRLIDTLRMVTEGKIYVEIERARLTKTLATIKEQNGDVKEAASILQELQVETYGSMEKKERVEFILEQMRLCLAVKDYIRTQIISKKINTKFFQEENTEKLKLKYYNLMIQLDQHEGSYLSICKHYRAIYDTPCIQAESEKWQQALKSVVLYVILAPFDNEQSDLVHRISGDKKLEEIPKYKDLLKLFTTMELMRWSTLVEDYGMELRKGSLESPATDVFGSTEEGEKRWKDLKNRVVEHNIRIMAKYYTRITMKRMAQLLDLSVDESEAFLSNLVVNKTIFAKVDRLAGIINFQRPKDPNNLLNDWSQKLNSLMSLVNKTTHLIAKEEMIHNLQ

system: SLC16A11; assay: SLC16A11 protein-protein interaction study (immunoprecipitation, quantitative mass spectrometry); parameters: species or system human; conditions: putative SLC16A11^REF interaction partners; immunoprecipitation from HEK293T cells vs empty vector control; Blandt-Altman
Excerpt: Alternatively, these variants may result in reduced transport because they disrupt protein-protein interactions responsible for correct SLC16A11 function. To explore this possibility, SLC16A11 was immunoprecipitated from HEK293T cells expressing either REF or T2D risk SLC16A11-V5 or empty vector control and quantitative mass spectrometry was used to define the SLC16A11 interactome.
Another mechanism through which the variants could affect activity is through disruption of protein-protein interactions. To explore this possibility, quantitative mass spectrometry-based protein-protein interaction studies were performed to define the SLC16A11 interactome and evaluate if the T2D risk coding variants alter any interactions.
Beads were then washed once with lysis buffer and three times with wash buffer. After the last wash, residual wash buffer was removed, 10 μL fresh wash buffer was added, and beads were stored at −80° C. until analysis by the Proteomics Platform at the Broad Institute, as detailed in the “Proteomics Methods for SLC16A11 Protein Interaction Studies” below.
The beads from immunopurification were washed once with IP lysis buffer, then three times with PBS, the three different lysates of each replicate were resuspended in 90 uL digestion buffer (2M Urea, 50 mM Tris HCl), 2 ug of sequencing grade trypsin added, 1 hour shaking at 700 rpm. The supernatant was removed and placed in a fresh tube. The beads were then washed twice with 50 uL digestion buffer and combined with the supernatant. The combined supernatants were reduced (2 uL 500 mM DTT, 30 minutes, RT), alkylated (4 uL 500 mM IAA, 45 minutes, dark) and a longer overnight digestion performed: 2 ug (4 uL) trypsin, shake o/n, The samples were then quenched with 20 uL 10% FA and desalted on 10 mg SepPak columns.
Desalted peptides were labelled with iTRAQ reagents according to the manufacturer's instructions (AB Sciex, Foster City, Calif.). Peptides were dissolved in 30 μl of 0.5 M TEAB pH 8.5 solution and labeling reagent was added in 70 ul of ethanol. After 1 h incubation the reaction was stopped with 50 mM Tris/HCl pH 7.5. Differentially labelled peptides were mixed and subsequently desalted on 10 mg SepPak columns.
Reconstituted peptides were separated on an online nanoflow EASY-nLC 1000 UHPLC system (Thermo Fisher Scientific) and analyzed on a benchtop Orbitrap Q Exactive Plus mass spectrometer (Thermo Fisher Scientific). The peptide samples were injected onto a capillary column (Picofrit with 10 μm tip opening/75 μm diameter, New Objective, PF360-75-10-N-5) packed in-house with 20 cm C18 silica material (1.9 μm ReproSil-Pur C18-AQ medium, Dr. Maisch GmbH, r119.aq). The UHPLC setup was connected with a custom-fit microadapting tee (360 μm, IDEX Health & Science, UH-753), and capillary columns were heated to 50° C. in column heater sleeves (Phoenix-ST) to reduce backpressure during UHPLC separation. Injected peptides were separated at a flow rate of 200 nL/min with a linear 80 min gradient from 100% solvent A (3% acetonitrile, 0.1% formic acid) to 30% solvent B (90% acetonitrile, 0.1% formic acid), followed by a linear 6 min gradient from 30% solvent B to 90% solvent B. Each sample was run for 120 min, including sample loading and column equilibration times. The Q Exactive instrument was operated in the data-dependent mode acquiring HCD MS/MS scans (R=17,500) after each MS1 scan (R=70,000) on the 12 top most abundant ions using an MS1 ion target of 3×10^6 ions and an MS2 target of 5×10^4 ions. The maximum ion time utilized for the MS/MS scans was 120 ms; the HCD-normalized collision energy was set to 27; the dynamic exclusion time was set to 20 s, and the peptide match and isotope exclusion functions were enabled.
All mass spectra were processed using the Spectrum Mill software package v6.0 pre-release (Agilent Technologies) which includes modules developed by us for iTRAQ-based quantification. […]

| Molecule | BA log fold change |
| --- | --- |
| B1 | 1.22 |
| B2 | 1.18 |
| B3 | 1.21 |
| B4 | 1.16 |
| B5 | 1.23 |
| B6 | 1.16 |
| B7 | 1.20 |
| B8 | 1.18 |

Source: US11471462B2, “Compositions and methods for detecting and treating diabetes” (THE BROAD INSTITUTE, INC., priority 2016, dated 2022)
